Laboratory results: publication PMC11849304 (Virology Journal, 2025)

Biological target: soluble WT SARS-CoV-2 spike trimer protein (SARS-CoV-2, wild-type (NC_045512), UniProt P0DTC2)
Assay: ELISA

Binder	binding result
COV2-2490 (antibody, V domains shown) VH: EVQLVESGGGLVQPGGSLRLSCAASGFTFSSYWMNWVRQAPGKGLEWVANINQDGGEKYYVDSVRGRFTISRDNAKNSLYLQMNSLRAEDTAVYYCARDPYDLYGDYGGTFDYWGQGTLVTVSS VL: not shown	binds
8D2 (antibody, V domains shown) VH: EVQLVESGGGLVQPGGSLRLSCAASGFTFSSYWMSWVRQAPGKGLEWVANINQDGSEKYYVDSVKGRFTISRDNAKNSLYLQVNSLRAEDTAVYYCARDWDYDILTGSWFGAFDIWGQGTTVTVSS VL: DIQMTQSPSSLSASVGDRVTITCRASQGIRNDLGWYQQKPGKAPKRLIYAASSLQSGVPSRFSGSGSGTEFTLTISSLQPEDFATYYCLQHNSYPLTFGGGTKVEIK	binds
